Target: Manduca sexta CAD repeat 12 (CR12) fragment
Experiment: ELISA
Conditions: plates coated with 0.5 μg of CR12, read off a plot

| Substance | response (Absorbance 490 nm) (25 nM activated toxin mixed with PxHsp90 at a 1:30 ratio (toxin to chaperone), parent measured without PxHsp90, parent: est. 1.2) | response (Absorbance 490 nm) (25 nM activated toxin, no PxHsp90, parent: est. 1.2) | response (Absorbance 490 nm) (50 nM activated toxin mixed with PxHsp90 at a 1:30 ratio (toxin to chaperone), parent measured without PxHsp90, parent: est. 1.6) | response (Absorbance 490 nm) (50 nM activated toxin, no PxHsp90, parent: est. 1.6) | response (Absorbance 490 nm) (100 nM activated toxin mixed with PxHsp90 at a 1:30 ratio (toxin to chaperone), parent measured without PxHsp90, parent: est. 1.7) | response (Absorbance 490 nm) (100 nM activated toxin, no PxHsp90, parent: est. 1.7) | response (Absorbance 490 nm) (25 nM protoxin mixed with PxHsp90 at a 1:30 ratio (protoxin to chaperone), parent measured without PxHsp90, parent: est. …) | response (Absorbance 490 nm) (25 nM protoxin, no PxHsp90, parent: est. 0.86) | response (Absorbance 490 nm) (50 nM protoxin mixed with PxHsp90 at a 1:30 ratio (protoxin to chaperone), parent measured without PxHsp90, parent: est. …) | response (Absorbance 490 nm) (50 nM protoxin, no PxHsp90, parent: est. 0.95) | response (Absorbance 490 nm) (100 nM protoxin mixed with PxHsp90 at a 1:30 ratio (protoxin to chaperone), parent measured without PxHsp90, parent: est. …) | response (Absorbance 490 nm) (100 nM protoxin, no PxHsp90, parent: est. 1.2) |
| --- | --- | --- | --- | --- | --- | --- | --- | --- | --- | --- | --- | --- |
| Cry1Ab activated toxin (from UniProt P0A370) G439D | 0.58 | 0.44 | 0.77 | 0.48 | 1.1 | 0.66 |  |  |  |  |  |  |
| Cry1Ab protoxin (from UniProt P0A370) G439D |  |  |  |  |  |  | 0.82 | 0.44 | 1.2 | 0.47 | 1.6 | 0.52 |

— publication PMC6879724
